# Source: the DeepSol protein solubility set
# Experiment: soluble on expression in E. coli; label from the status in PepcDB or PDB records
row,Sequence,soluble on expression in E. coli
1,MSLNNYKIFISAGESSGDIHGANLMRSLLKKNPNITFYGLGKERMNEAGLHCLCDMKTKSLMWLHALTELSAFLRMKKDCVRFFQHETPCAVILIDYCGFNFQLARAAKKLKIPVIYYITPQLWAHGPWRIKKLRKLVDFLIVIYPFEKSFYETSGLPVTYVGHPLFDELDRERRINNHLSMEEKQVGEYIVSLLPGSRKQEIIRLLPLLLRAAKQIKQTIPSIKILVSCTSEQYFSLIRLIVEASHLPAEIIVGCVRKIIQSSDICLAGSGTVTLQIAYYHTPMLIVYKISPFAYFIARPFLTTPYIGLVNILANKMIVPETLMCSNNYSRLANQAIELLRNNQKRHLCIENLRSLMDDIGKPGASERAAEEIFRFLRQETEGHHHHHH,not soluble
2,MSLNPPLPHFRYHPEPLASGSIEASATTCQCCGKARGYVYTGSPYSRHELPPGSLCPWCIADGSAAARYEASFSDDYPLLDAGVAADIVTEVCERTPGYTSWQRERWLVCCEDACAFRGDAGREEIGQLGAEGLAQRFADFAWPAITWQRLVDAYTPGGNPAIYRFDCLHCGQAHYDLDFTEGGSHHHHHH,soluble
3,MSLNSAIKDIEIIEMGEKLRETSSPWSSTILLVKLTSADGLVGYGEAPTTLMTLPVLESMKEVARVFKGKDFFNVEQNVFDFYRNSFYLPVSMEATSALSAFEIASWDLIGKELGTPVYKLIGGEVNHNIRAYANGWYNDCVTPDDFVKKAKEVVKMGFTAMKFDPFGDNYDTITNEGIENARNIVGALRSEFGEKVDLLIEYHGRFSKIAAIKAGMALEEFKPYFYEEPLHPDLDHDLLDLKQYYKVPIALGERVLNKKIFARFISQKLVDIIQPDLTNSGGILEAKKIAAIADGFGIPIAPHNAFGPIQTAATLNVDTTLTNFAIQESFEMFWPDWKKNLMASGYKLENGYFRLTGDAGIGKVNESIVEKYQVSGMEPFDDKEPPWVVSGTFKHYQQKEGHHHHHH,not soluble
4,MSLNSFNLEGKVALVTGCKRGIGKAMAVALAQAGVDVIGVSASLESEGSDVAKAVEATGRKFSAYKCDFNSREAIYTFIEQVKAAHPVIDILVNNAGTILRAPAAEHGDSLWDEVINVNLNSQFILSRELGREMVKRGSGKVIFTASLLTFQGGITVPGYAASKGAIGQLTKALANEWAGSGVNVNAIAPGYIATDNTQALRDDPERATSILSRIPQNRWGKPEDFAGPVVFLASEAASYVNGSVMVVDGGWMGREGHHHHHH,not soluble
5,MSLNSLLLVSRIYQQTCIDDLAQLANEVKASFVRLVNEDANSHMIGTAMSTIGRAFTQRIIELVEAELGAAPLPYCFVAFGSMGRDEQLIVTDQDNALILDDRYDVQQHGAYFAQFAELVCRGLDRCGYPLCDGEIMASNPKWRMTRKEWETCFADWIDNPNPQALLNASIFFDLDGVYGRTKWAEQLSGFIVRRARRNQRFLACLARNALNRTPPLGFFKNFVMEKDGRHNNSINLKRRGTAPLADLIRVHALAAGSRAKNSFERLDDVIEAGLLPQGKGKDLRDALEFIAMVRIRHQAIDVEQEREADNSIEPEHLSDFERRNLKDAFQILSNGQNYLKYRYQANQHFKEGHHHHHH,soluble
6,MSLNSNTEKRIALISVHGDPAIEIGKEEAGGQNVYVREVGKALAQLGWQVDMFSRKVSPEQELIVHHSPLCRTIRLTAGPEEFVPRDNGFKYLPEFVQQLLRFQKENNVNYPLVHTNYWLSSWVGMQLKAIQGSKQVHTYHSLGAVKYKSIDTIPLVATKRLSVEKQVLETAERIVATSPQEQQHMRSLVSTKGYIDIVPCGTDIHRFGSIARQAARAELGIDQEAKVVLYVGRFDQRKGIETLVRAMNESQLRDTNKLKLIIGGGSTPGNSDGRERDRIEAIVQELGMTEMTSFPGRLSQDVLPAYYAAADVCVVPSHYEPFGLVAIEAMASGTPVVASDVGGLQFTVVSEKTGLLVPPKDIAAFNIAIDRILMNPQWRDELGLAARKHVTHKFGWEGVASQLDGIYTQLLTQQVKEPALVTKEGHHHHHH,soluble
7,MSLNTQQGLDEIERIAADETVVANVESEAEVKMAETIPVETPPAVVPSVDDSSLYIHRELSQLQFNIRVLEQALDESYPLLERLKFLLIFSSNLDEFFEIRIAGLKKQITFAREQAGADGLLPHQALARISELVHEQVSRQYRILNETLLPELAKHQIRFIRRRHWTLKIKTWVRRFFRDEIAPIITPIGLDPTHPFPLLVNKSLNFIVELEGMDAFGRDSGLAIIPAPRLLPRIIRLPEDVGGEGDNYVFLSSMIHAHADDLFPGMKVKGCYQFRLTRNADLSVDTEDVEDLARALRGELFSRRYGDAVRLEVVDTCPQNLTNYLLKQFGLSESELYKVSGPVNLTRLFSVTGLESHPELQYPPFTPAIPRLLQKKENLFNVLSKLDVLLMHPFESFTPVIDLLRQAAKDPNVLAIKQTLYRSGANSEIVDALVEAARNGKEVTAVIELRARFDEESNLQLASRLQQAGAVVIYGVVGFKTHAKMMLILRREDGELRRYAHLGTGNYHAGNARLYTDYSLLTADVALCEDLHKLFNQLIGMGKTLRMKKLLHAPFTLKKNLLEMINREAAQAALGQPAHIMAKVNSLTDPKVIRALYKASQAGVRIDLVVRGMCCLRPGIPGVSHNIHVRSIIGRFLEHSRIYYFLNGGDEKLYLSSADWMERNLDMRVETCFPVEGKKLVQRVKKELETYLTDNTQAWVLQADGSYQRLSPTGNQNPRNTQATLLEKLAAPVLTAREGHHHHHH,soluble
8,MSLNTVIADFTERAGTGRVLKAEPEAIQLAPEQTALIVVDMQNAYTSIGGYLDLAGFDVSKTKPVVENIQKAVTAAHAAGIQVIYFKNGWDNQYVEAGGAGSPNFHKSNALKTMRKQPELQGKLLAKGGWDFELIDELQPKSQDIVIEKPRYSGFFNTALDSMLRARGIRNLVFVGIATNVCVESTLRDGFFLEYFGVALDDACYQAGPVEMHRASMYNIKTFFGWVSDTEGHHHHHH,not soluble
9,MSLNYRFRFAPYQRPFKTPLQTHHGLWTVREGIMLSLRDERGRITQGEIVPLPWFGTETLEEAIAFCAAFGGNITSEQIAAIPDALPACQFGFETAQLNLASTENLVSLPPTKFCQLIRRSPTMFQDLQTLLQQGFRTFKLKIALDIPATEIALCQQILETLPADGRLRLDANGGLTLEQVKQWLDWGESQAKLEFIEQPLAPAHFSNLLQLNAEFQTQIALDESVSQVASLEHCYAQGWRGVFVIKLAIAGFPSRLQDVCQTKKLDFVLSTVFETAVGQRALLNFSQDFVQSRRALGMGGTQWIEGHHHHHH,soluble
10,MSLPHVILTVLSTRDATGYDITKEFSASIGYFWKASHQQVYRELNKMGEQGLVTCVLEPQEGKPDRKVYSITQAGRSALGEWFDQPTAHPTVRDEFSAKLMACSVQSAEPYRLQLAELVEESRKLVAHYQEIEAAYYANPAVLDKQQRLERLTLRRNLLVRQAWIQWADEVLAELNAMA,soluble
11,MSLPINVPSGLPAVKVLAKEGIFVMTEKRAIHQDIRPLEILILNLMPDKIKTEIQLLRLLGNTPLQVNVTLLYTETHKPKHTPIEHILKFYTTFSAVKDRKFDGFIITGAPVELLPFEEVDYWEELTEIMEWSRHNVYSTMFICWAAQAGLYYFYGIPKYELPQKLSGVYKHRVAKDSVLFRGHDDFFWAPHSRYTEVKKEDIDKVPELEILAESDEAGVYVVANKSERQIFVTGHPEYDRYTLRDEYYRDIGRNLKVPIPANYFPNDDPTKTPILTWWSHAHLFFSNWLNYCIYQKTPYRLEDIHEGHHHHHH,soluble
12,MSLPRGLELLIAQTILQGFDAQYGRFLEVTSGAQQRFEQADWHAVQQAMKNRIHLYDHHVGLVVEQLRCITNGQSTDAAFLLRVKEHYTRLLPITRASRLRRAFLTPCTVGYLTTARLLPSGFLSLALSQSAAFVPFPPAGQRLSPRSRLGISTDARYQRPTAAPAWQNKSRDIHYIIRHLTETLGTDNLAESHLQVANELFYRNKAAWLVGKLITPSGTLPFLLPIHQTDDGELFIDTCLTTTAEASIVFGFARSYFMVYAPLPAALVEWLREILPGKTTAELYMAIGCQKHAKTESYREYLVYLQGCNEQFIEAPGIRGMVMLVFTLPGFDRVFKVIKDRFAPQKEMSAAHVRACYQLVKEHDRVGRMADTQEFENFVLEKRHISPALMELLLQEAAEKITDLGEQIVIRHLYIERRMVPLNIWLEQVEGQQLRDAIEEYGNAIRQLAAANIFPGDMLFKNFGVTRHGRVVFYDYDEICYMTEVNFRDIPPPRYPEDELASEPWYSVSPGDVFPEEFRHWLCADPRIGPLFEEMHADLFRADYWRALQNRIREGHVEDVYAYRRRQRFSVRYGEMLFEGHHHHHH,not soluble
13,MSLQARVAAPVVAKEREELVDRIEGETSAADELEKSVDELRDDVDARRREALEKSGDGDRSDLVGILSGAVEVHGPGVKLVVNDAKDVATGADGQPRGTSGFSDTGRVRDRDMQRVVNGLWESGAEAISVNGQRLTALSAIRAAGDAILVDNRPLVPPYTVLAVGDGERLSRGFQDSADGLYLHALEESYGIRTAISVADDLKLPAAPSVIVRTAQPITEKGTSEGHHHHHH,soluble
14,MSLQDLATLYPQKTWSVVNQQFSADQGQLAFAHANTLLALTKECQQPIIHFWTLEKTVILGMMDTKLPELTAATDQLTAAGYHYFVRNAGGLGIVADTGILNLGFYLPEVADHLSINAAYELMKTLFSETFNTSNITIEHFEVQHSYCPGEYDLSINGQKFAGIAQRRSKNGIAILLYASIEGDQQARGTLMQHFYQAGKAQQQTRWTFPDVHPETMANLADLLHQPLTVASVSQQLSASLQSNSGLTLQSDLQTLMQEADYQTQLTKNTQLLRRYQPGYQPEGHHHHHH,soluble
15,MSLQFSFDPVSNAPMVSFPSTQQPDLEKLRFKFAPVLSRSFAFNGGSRTGTLYGVQVPYVDNSKEFSQYAAKLFEVYKSLGADKQFAVPTIGLINHTSTLEHNQTVNLALEAIVSELELFIESLKYSGRQQRLVDLEECLSILNCLKTVQFTLDSEEENSRAKFIDSLISWVNRTDGEPSEAVIAKVLGDGKQTPILENPYFWRLLCQLIIRGLFDQAVAAIEKSELLSYLADKCSATHTMVQDMVNLLQGYPRELEPVYREWKDLVLQLHLNWSQSEHKISIELASSLEDCLLIMCGNKSKIIYYSKTWYECYCGLMLYYIPSLQLSEEYLQLVLKEHPLDVTSPWEQACVSIITGKIYSILPVLDSLDSCTAAFTAAICEAKGLLENDLLDDGGLEVSNTGDEMFGLGNTMASYLLNQFALSIVTYEDKNLWAVAIGIIYLTPNYSDAAKRMMIAELLPHYPFQTNDDIEWMLTICAKWKLPQIARTIYRVLGQEALYLNNIIEAISNFSKAGEFEWVKEGHHHHHH,soluble
16,MSLQLPISQYNELLQKKLEKLTALLHPFNAPDIQVFDSPTSHYRMRAEFRIWHEQDDFYHIMFDQATLQRYRVDEFPIASMLINRMMQTLLPLLKQQEVLHKKLFQIDYLSTLSNKIIVSLLYHKTLTEEWESAAKNLKDLLEKQDFDVQIIGRASKQKICFEQDYVDEVLPVNGRNYVYRQVENSFTQPNATVNCKMLEWAIDCTQNSEGDLLELYCGNGNFSIALAQNFRKVLATEIAKPSVAAAQFNIAENKVDNLQIIRMSAEEFTQAMNGVRAFNRLKGIDLKSYECNTIFVDPPRAGLDPDTVKLVQNYDRILYISCNPHTLCDNLVELSKTHRIEKAALFDQFPYTDHMESGLWLIRKEGHHHHHH,soluble
17,MSLQNKTVFVGISGGVDSAVSALLLKQQYREVIGIFMECWDNTLNNDQLGHRAFNEHKSGCSSKEDFREAQAIAQLLGIKLIKQNLVEPY,soluble
18,MSLQPTAGETTFERVRRTRKLRIGAVNGGAPYYYRDLASGQWKGFYIDICKALADEMECELDVTETTWGNSVLDLQAGKTDVFFGLNPTPKRALVVDFSVPVFANAFTFITRKGFERKTWAEMNDPAVRIAVDAGSSHDAVVTRLAPKAQITRLKGADDATAALQAGRVDAQCLVFILSLTVLKKNPALGQFTLPTPIFSTTSNAGFRREADKTWRDYVSTWIEFNKGMGFIRSAIIGNLESEGHHHHHH,not soluble
